Laboratory results taken from patent publication US20250066503A1, “CELL INJURY INDUCING THERAPEUTIC DRUG FOR USE IN CANCER THERAPY” (CHUGAI SEIYAKU KABUSHIKI KAISHA, priority 2016, published 2025).

Target: T1, soluble human CD3 epsilon chain (human, UniProt P07766 23-126)
T1 construct: also called CD3ε
Assay: SPR

T1 sequence (P07766 23-126 limits assumed): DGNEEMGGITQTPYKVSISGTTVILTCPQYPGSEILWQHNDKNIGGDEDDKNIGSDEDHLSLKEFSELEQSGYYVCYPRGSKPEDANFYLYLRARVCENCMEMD

Kd [nM]	Binder
63.4	TR01H015-E22Hh/none-Hi-Kn010G3/TR01L003-k0 (antibody, human IgG1, L234A L235A, N297A, one-arm) heavy: QVQLVESGGGLVQPGRSLRLSCAASGFTFSNAWMHWVRQAPGKGLEWVAQIKGKSNNYATYYAESVKGRFTISRADSKNSIYLQMNSLKTEDTAVYYCRYVHYSASYGVDIWGQGTTVTVSSASTKGPSVFPLAPSSKSTSGGTAALGCLVKDYFPEPVTVSWNSGALTSGVHTFPAVLQSSGLYSLSSVVTVPSSSLGTQTYICNVNHKPSNTKVDKKVEPKSCDKTHTCPPCPAPEAAGGPSVFLFPPKPKDTLMISRTPEVTCVVVDVSHEDPEVKFNWYVDGVEVHNAKTKPREEQYASTYRVVSVLTVLHQDWLNGKEYKCKVSNKALPAPIEKTISKAKGQPREPQVYTLPPSRCELTKNQVSLSCAVKGFYPSDIAVEWESNGQPENNYKTTPPVLDSDGSFFLVSKLTVDKSRWQQGNVFSCSVMHEALHNHYTQKSLSLSPDYKDDDDK VL: DIVMTQSPLSLPVTPGEPASISCRSSQSLVHSNRNTYLHWYQQKPGQAPRLLIYKVSNRFSGVPDRFSGSGSGTDFTLKISRVEAEDVGVYYCGQGTQVPYTFGQGTKVEIE
68.2	TR01H040-E22Hh/none-Hi-Kn010G3/TR01L007-k0 (antibody, V domains shown, one-arm) VH: QVQLVESGGGLVQPGRSLRLSCAASGFTFSNAWMHWVRQAPGKGLEWVAQIKDKSQNYATYYAESVKGRFTISRADSKNSIYLQMNSLKTEDTAVYYCRYVHYSASYGVDAWGQGTTVTVSS VL: DIVMTQSPLSLPVTPGEPASISCQASESLVHSNRNTYLHWYLQKPGQSPQLLIYKVSNRFSGVPDRFSGSGSGTDFTLKISRVEAEDVGVYYCGQGTQVPYTFGQGTKLEIK
71.4	TR01H015-E22Hh/none-Hi-Kn010G3/TR01L002-k0 (antibody, human IgG1, L234A L235A, N297A, one-arm) heavy: QVQLVESGGGLVQPGRSLRLSCAASGFTFSNAWMHWVRQAPGKGLEWVAQIKGKSNNYATYYAESVKGRFTISRADSKNSIYLQMNSLKTEDTAVYYCRYVHYSASYGVDIWGQGTTVTVSSASTKGPSVFPLAPSSKSTSGGTAALGCLVKDYFPEPVTVSWNSGALTSGVHTFPAVLQSSGLYSLSSVVTVPSSSLGTQTYICNVNHKPSNTKVDKKVEPKSCDKTHTCPPCPAPEAAGGPSVFLFPPKPKDTLMISRTPEVTCVVVDVSHEDPEVKFNWYVDGVEVHNAKTKPREEQYASTYRVVSVLTVLHQDWLNGKEYKCKVSNKALPAPIEKTISKAKGQPREPQVYTLPPSRCELTKNQVSLSCAVKGFYPSDIAVEWESNGQPENNYKTTPPVLDSDGSFFLVSKLTVDKSRWQQGNVFSCSVMHEALHNHYTQKSLSLSPDYKDDDDK VL: DIVMTQSPLSLPVTPGEPASISCRSSQSLVHSNRNTYLHWYLQKPGQSPQLLIYKVSNRFSGVPDRFSGSGSGTDFTLKISRVEAEDVGVYYCGQGTQVPYTFGQGTKLEIK
73.4	TR01H015-E22Hh/none-Hi-Kn010G3/TR01L004-k0 (antibody, human IgG1, L234A L235A, N297A, one-arm) heavy: QVQLVESGGGLVQPGRSLRLSCAASGFTFSNAWMHWVRQAPGKGLEWVAQIKGKSNNYATYYAESVKGRFTISRADSKNSIYLQMNSLKTEDTAVYYCRYVHYSASYGVDIWGQGTTVTVSSASTKGPSVFPLAPSSKSTSGGTAALGCLVKDYFPEPVTVSWNSGALTSGVHTFPAVLQSSGLYSLSSVVTVPSSSLGTQTYICNVNHKPSNTKVDKKVEPKSCDKTHTCPPCPAPEAAGGPSVFLFPPKPKDTLMISRTPEVTCVVVDVSHEDPEVKFNWYVDGVEVHNAKTKPREEQYASTYRVVSVLTVLHQDWLNGKEYKCKVSNKALPAPIEKTISKAKGQPREPQVYTLPPSRCELTKNQVSLSCAVKGFYPSDIAVEWESNGQPENNYKTTPPVLDSDGSFFLVSKLTVDKSRWQQGNVFSCSVMHEALHNHYTQKSLSLSPDYKDDDDK VL: DIVMTQSPLSLPVTPGEPASISCQASESLVHSNRNTYLHWYQQKPGQAPRLLIYKVSNRFSGVPDRFSGSGSGTDFTLKISRVEAEDVGVYYCGQGTQVPYTFGQGTKVEIE
93	TR01H015-E22Hh/none-Hi-Kn010G3/TR01L006-k0 (antibody, human IgG1, L234A L235A, N297A, V domains shown, one-arm) VH: QVQLVESGGGLVQPGRSLRLSCAASGFTFSNAWMHWVRQAPGKGLEWVAQIKGKSNNYATYYAESVKGRFTISRADSKNSIYLQMNSLKTEDTAVYYCRYVHYSASYGVDIWGQGTTVTVSS VL: DIVMTQSPLSLPVTPGEPASISCQASESLVHSNRNTYLHWYLQKPGQSPQLLIYKVSNRFSGVPDRFSGSGSGTDFTLKISRVEAEDVGVYYCGQGTQVPYTFGQGTKVEIE
65.6	TR01H015-E22Hh/none-Hi-Kn010G3/TR01L001-k0 (antibody, human IgG1, L234A L235A, N297A, one-arm) heavy: QVQLVESGGGLVQPGRSLRLSCAASGFTFSNAWMHWVRQAPGKGLEWVAQIKGKSNNYATYYAESVKGRFTISRADSKNSIYLQMNSLKTEDTAVYYCRYVHYSASYGVDIWGQGTTVTVSSASTKGPSVFPLAPSSKSTSGGTAALGCLVKDYFPEPVTVSWNSGALTSGVHTFPAVLQSSGLYSLSSVVTVPSSSLGTQTYICNVNHKPSNTKVDKKVEPKSCDKTHTCPPCPAPEAAGGPSVFLFPPKPKDTLMISRTPEVTCVVVDVSHEDPEVKFNWYVDGVEVHNAKTKPREEQYASTYRVVSVLTVLHQDWLNGKEYKCKVSNKALPAPIEKTISKAKGQPREPQVYTLPPSRCELTKNQVSLSCAVKGFYPSDIAVEWESNGQPENNYKTTPPVLDSDGSFFLVSKLTVDKSRWQQGNVFSCSVMHEALHNHYTQKSLSLSPDYKDDDDK VL: DIVMTQSPLSLPVTPGEPASISCQASESLVHSNRNTYLHWYQQKPGQAPRLLIYKVSNRFSGVPDRFSGSGSGTDFTLKISRVEAEDVGVYYCGQGTQVPYTFGQGTKLEIK
65.3	TR01H015-E22Hh/none-Hi-Kn010G3/TR01L005-k0 (antibody, human IgG1, L234A L235A, N297A, one-arm) heavy: QVQLVESGGGLVQPGRSLRLSCAASGFTFSNAWMHWVRQAPGKGLEWVAQIKGKSNNYATYYAESVKGRFTISRADSKNSIYLQMNSLKTEDTAVYYCRYVHYSASYGVDIWGQGTTVTVSSASTKGPSVFPLAPSSKSTSGGTAALGCLVKDYFPEPVTVSWNSGALTSGVHTFPAVLQSSGLYSLSSVVTVPSSSLGTQTYICNVNHKPSNTKVDKKVEPKSCDKTHTCPPCPAPEAAGGPSVFLFPPKPKDTLMISRTPEVTCVVVDVSHEDPEVKFNWYVDGVEVHNAKTKPREEQYASTYRVVSVLTVLHQDWLNGKEYKCKVSNKALPAPIEKTISKAKGQPREPQVYTLPPSRCELTKNQVSLSCAVKGFYPSDIAVEWESNGQPENNYKTTPPVLDSDGSFFLVSKLTVDKSRWQQGNVFSCSVMHEALHNHYTQKSLSLSPDYKDDDDK VL: DIVMTQSPLSLPVTPGEPASISCRSSQSLVHSNRNTYLHWYLQKPGQSPQLLIYKVSNRFSGVPDRFSGSGSGTDFTLKISRVEAEDVGVYYCGQGTQVPYTFGQGTKVEIE
106	TR01H082-E22Hh/none-Hi-Kn010G3/TR01L020-k0 (antibody, V domains shown, one-arm) VH: QVQLVESGGGLVQPGRSLRLSCAASGFTFSNAWMHWVRQAPGKGLEWVAQIKDKSQNYATYYAESVKGRFTISRDDSKNSLYLQMNSLKTEDTAVYYCRYVHYAAGYGVDAWGQGTTVTVSS VL: DIVMTQSPLSLPVTPGEPASISCQASESPVHSNRNTYIQWYLQKPGQSPQLLIYKVSNRFSGVPDRFSGSGSGTDFTLKISRVEAEDVGVYYCYQGTQVPYTFGQGTKLEIK
3.25	TR01H080-E22Hh/none-Hi-Kn010G3/L0000-k0 (antibody, V domains shown, one-arm) VH: QVQLVESGGGLVQPGRSLRLSCAASGFTFSNAWMHWVRQAPGKGLEWVAQIKDKSNNYATYYAESVKGRFTISRADSKNSIYLQMNSLKTEDTAVYYCRYVHYAAVRRRLSSYGVDIWGQGTTVTVSS VL: DIVMTQSPLSLPVTPGEPASISCRSSQSLVHSNRNTYLHWYQQKPGQAPRLLIYKVSNRFSGVPDRFSGSGSGTDFTLKISRVEAEDVGVYYCGQGTQVPYTFGQGTKLEIKR
80	rCE115H-E22Hh/none-Hi-Kn010G3/L0000-k0 (antibody, human IgG1, kappa, L234A L235A, N297A, V domains shown, one-arm) VH: EVQLVETGGSLVQPGKSLKLTCATSGFTFSNAWMHWVRQSPEKQLEWVAQIKAKSNNYATYYAESVKGRFTISRDDSKSNIYLQMNSLKEEDTAVYYCRYVHYGAYYGVDAWGQGTSVTVSS VL: DIVMTQSPLSLPVTPGEPASISCRSSQSLVHSNRNTYLHWYQQKPGQAPRLLIYKVSNRFSGVPDRFSGSGSGTDFTLKISRVEAEDVGVYYCGQGTQVPYTFGQGTKLEIKR
50.5	TR01H079-E22Hh/none-Hi-Kn010G3/L0000-k0 (antibody, V domains shown, one-arm) VH: QVQLVESGGGLVQPGRSLRLSCAASGFTFSNAWMHWVRQAPGKGLEWVAQIKDKSNNYATYYAESVKGRFTISRADSKNSIYLQMNSLKTEDTAVYYCRYVHYAAAEMVRDSYGVDIWGQGTTVTVSS VL: DIVMTQSPLSLPVTPGEPASISCRSSQSLVHSNRNTYLHWYQQKPGQAPRLLIYKVSNRFSGVPDRFSGSGSGTDFTLKISRVEAEDVGVYYCGQGTQVPYTFGQGTKLEIKR
85.2	rCE115H-E22Hh/none-Hi-Kn010G3/L0000vk1-k0 (antibody, human IgG1, L234A L235A, N297A, V domains shown, one-arm) VH: EVQLVETGGSLVQPGKSLKLTCATSGFTFSNAWMHWVRQSPEKQLEWVAQIKAKSNNYATYYAESVKGRFTISRDDSKSNIYLQMNSLKEEDTAVYYCRYVHYGAYYGVDAWGQGTSVTVSS VL: DIQMTQSPSSLSASVGDRVTITCRSSQSLVHSNRNTYLHWYQQKPGKAPKLLIYKVSNRFSGVPSRFSGSGSGTDFTFTISSLQPEDIATYYCGQGTQVPYTFGQGTKVEIK
93.7	GPC3_ERY22_CE115 (rCE115H-E22Hh/rCE115L-k0/GL4-E22Hk/H0000-E22L) (bispecific antibody, human IgG1, kappa, L234A L235A, N297A, ERY22 format) heavy: EVQLVETGGSLVQPGKSLKLTCATSGFTFSNAWMHWVRQSPEKQLEWVAQIKAKSNNYATYYAESVKGRFTISRDDSKSNIYLQMNSLKEEDTAVYYCRYVHYGAYYGVDAWGQGTSVTVSSASTKGPSVFPLAPSSKSTSGGTAALGCLVKDYFPEPVTVSWNSGALTSGVHTFPAVLQSSGLYSLSSVVTVPSSSLGTQTYICNVNHKPSNTKVDKKVEPKSCDKTHTCPPCPAPEAAGGPSVFLFPPKPKDTLMISRTPEVTCVVVDVSHEDPEVKFNWYVDGVEVHNAKTKPREEQYASTYRVVSVLTVLHQDWLNGKEYKCKVSNKALPAPIEKTISKAKGQPREPQVYTLPPSRCELTKNQVSLSCAVKGFYPSDIAVEWESNGQPENNYKTTPPVLDSDGSFFLVSKLTVDKSRWQQGNVFSCSVMHEALHNHYTQKSLSLSPDYKDDDDK light: DVVMTQTPVSMSVSLGGQVSISCRSSQSLVHNNGNTYVSWYIQKPSQSPQLLIYKVSNRFSGISDRFSGSGSGTDFTLKISRVEPDDLGVYYCGQGTQDPYTFGAGTKLELKRTVAAPSVFIFPPSDEQLKSGTASVVCLLNNFYPREAKVQWKVDNALQSGNSQESVTEQDSKDSTYSLSSTLTLSKADYEKHKVYACEVTHQGLSSPVTKSFNRGEC chain 1: DIVMTQSPLSLPVTPGEPASISCRSSQSLVHSNRNTYLHWYQQKPGQAPRLLIYKVSNRFSGVPDRFSGSGSGTDFTLKISRVEAEDVGVYYCSQNTHVPPTFGQGTKLEIKSSASTKGPSVFPLAPSSKSTSGGTAALGCLVKDYFPEPVTVSWNSGALTSGVHTFPAVLQSSGLYSLSSVVTVPSSSLGTQTYICNVNHKPSNTKVDKKVEPKSCDKTHTCPPCPAPEAAGGPSVFLFPPKPKDTLMISRTPEVTCVVVDVSHEDPEVKFNWYVDGVEVHNAKTKPREEQYASTYRVVSVLTVLHQDWLNGKEYKCKVSNKALPAPIEKTISKAKGQPREPQVCTLPPSRDELTKNQVSLWCLVKGFYPSDIAVEWESNGQPENNYKTTPPVLDSDGSFFLYSKLTVDKSRWQQGNVFSCSVMHEALHNHYTQKSLSLSPHHHHHHHH chain 2: QVQLVQSGAEVKKPGASVKVSCKASGYTFTDYEMHWIRQPPGQGLEWIGAIDPKTGDTAYSQKFKGRVTLTADKSTSTAYMELSSLTSEDTAVYYCTRFYSYTYWGQGTLVTVSSASVAAPSVFIFPPSDEQLKSGTASVVCLLNNFYPREAKVQWKVDNALQSGNSQESVTEQDSKDSTYSLSSTLTLSKADYEKHKVYACEVTHQGLSSPVTKSFNRGEC
